Results taken from patent US20030104377, “Tenascin-C nucleic acid ligands” (Gilead Sciences, Inc., published 2003).

B1: TN9 (ssRNA)
RNA: GGGAGGACGAUGCGGAACAAUGCACUCGUCGCCGUAAUGGAUGUUUUGCUCCCUGCAGACGACUCGCCCGA
modifications: 2'-F C and U
B2: TN41 (ssRNA)
RNA: GGGAGGACGAUGCGGUUAAGUCUCGGUUGAAUGCCCAUCCCAGAUCCCCCUGACCCAGACGACUCGCCCGA
modifications: 2'-F C and U
B3: TN7 (ssRNA)
RNA: GGGAGGACGAUGCGGAACACUUUCCCAUGCGUCGCCAUACCGGAUAUAUUGCUCCCAGACGACUCGCCCGA
modifications: 2'-F C and U
B4: E9P2-2 (ssRNA)
RNA: GGGAGGACGAUGCGGUGCCCACUAUGCGUGCCGAAAAACAUUUCCCCCUCUACCCCAGACGACUCGCCCGA
modifications: 2'-F C and U
B5: E9P2-1 (ssRNA)
RNA: GGGAGGACGAUGCGGUGCCCAUAGAAGCGUGCCGCUAAUGCUAACGCCCUCCCCCAGACGACUCGCCCGA
modifications: 2'-F C and U
B6: TN21 (ssRNA)
RNA: GGGAGGACGAUGCGGACUGGACCAAACCGUCGCCGAUACCCGGAUACUUUGCUCCCAGACGACUCGCCCGA
modifications: 2'-F C and U
B7: TN27 (ssRNA)
RNA: GGGAGGACGAUGCGGAAACCAACCGUUGACCACCUUUUCGUUUCCGGAAAGUCCCCAGACGACUCGCCCGA
modifications: 2'-F C and U
B8: TN18 (ssRNA)
RNA: GGGAGGACGAUGCGGUCGACCUCGAAUGACUCUCCACCUAUCUAACAUCCCCCCCCAGACGACUCGCCCGA
modifications: 2'-F C and U
B9: TN24 (ssRNA)
RNA: GGGAGGACGAUGCGGGACCAACUAAACUGUUCGAAAGCUGGAACAUGUCCUGACGCCAGACGACUCGCCCGA
modifications: 2'-F C and U
B10: TN22 (ssRNA)
RNA: GGGAGGACGAUGCGGCAACCUCGAUAGACUUUUCCCGCAUCACUGUGUACUCCCCCAGACGACUCGCCCGA
modifications: 2'-F C and U
B11: TN45 (ssRNA)
RNA: GGGAGGACGAUGCGGCAAUCUCCGAAAAAGACUCUUCCUGCAUCCUCUCACCCCCCAGACGACUCGCCCGA
modifications: 2'-F C and U
B12: TN29 (ssRNA)
RNA: GGGAGGACGAUGCGGCCAACCUCAUUUUGACACUUCGCCGCACCUAAUUGCCCCCAGACGACUCGCCCGA
modifications: 2'-F C and U
B13: TN32 (ssRNA)
RNA: GGGAGGACGAUGCGGCAACCUCAAUCUUGACAUUUCCCGCACCUAAAUUUGCCCCCAGACGACUCGCCCGA
modifications: 2'-F C and U
B14: TN44 (ssRNA)
RNA: GGGAGGACGAUGCGGACGCCAGCCAUUGACCCUCGCUUCCACUAUUCCAUCCCCCCAGACGACUCGCCCGA
modifications: 2'-F C and U
B15: TN11 (ssRNA)
RNA: GGGAGGACGAUGCGGCAAUCAAAACUCACGUUAUUCCCUCAUCUAUUAGCUUCCCCAGACGACUCGCCCGA
modifications: 2'-F C and U
B16: TN14 (ssRNA)
RNA: GGGAGGACGAUGCGGCAAACGAUCACUUACCUUUCCUGCAUCUGCUAGCCUCCCCCAGACGACUCGCCCGA
modifications: 2'-F C and U
B17: TN4 (ssRNA)
RNA: GGGAGGACGAUGCGGCAACCUCGAAAGACUUUUCCCGCAUCACUGUGUACUCCCCCAGACGACUCGCCCGA
modifications: 2'-F C and U
B18: TN9.4M135G12G14 (ssRNA)
RNA: GGGAGGACGAUGCGGAACAAUGCACUCGUCGCCGUAAUGGAUGUUUUGCUCCCUG
modifications: 2'-F C and U; 2'-OMe purines of sectors 1,3,5 plus G12,G14; 5' hexyl amine; 3'-3' cap
B19: TN9.4M5 (ssRNA)
RNA: GGGAGGACGAUGCGGAACAAUGCACUCGUCGCCGUAAUGGAUGUUUUGCUCCCUG
modifications: 2'-F C and U; 2'-OMe A36,A37,G39,G40,A41,G43,G48; 3'-3' cap
B20: TN9.4M135A7 (ssRNA)
RNA: GGGAGGACGAUGCGGAACAAUGCACUCGUCGCCGUAAUGGAUGUUUUGCUCCCUG
modifications: 2'-F C and U; 2'-OMe purines of sectors 1,3,5 plus A7; 5' hexyl amine; 3'-3' cap
B21: TN9.4Me (ssRNA)
RNA: GGGAGGACGAUGCGGAACAAUGCACUCGUCGCCGUAAUGGAUGUUUUGCUCCCUG
modifications: 2'-F C and U; 2'-OMe all purines; 3'-3' cap
B22: TN9.4M135G34 (ssRNA)
RNA: GGGAGGACGAUGCGGAACAAUGCACUCGUCGCCGUAAUGGAUGUUUUGCUCCCUG
modifications: 2'-F C and U; 2'-OMe purines of sectors 1,3,5 plus G34; 5' hexyl amine; 3'-3' cap
B23: TN9.4M135G28 (ssRNA)
RNA: GGGAGGACGAUGCGGAACAAUGCACUCGUCGCCGUAAUGGAUGUUUUGCUCCCUG
modifications: 2'-F C and U; 2'-OMe purines of sectors 1,3,5 plus G28; 5' hexyl amine; 3'-3' cap
B24: TN9.4M135A10 (ssRNA)
RNA: GGGAGGACGAUGCGGAACAAUGCACUCGUCGCCGUAAUGGAUGUUUUGCUCCCUG
modifications: 2'-F C and U; 2'-OMe purines of sectors 1,3,5 plus A10; 5' hexyl amine; 3'-3' cap
B25: TN9.4M135G31 (ssRNA)
RNA: GGGAGGACGAUGCGGAACAAUGCACUCGUCGCCGUAAUGGAUGUUUUGCUCCCUG
modifications: 2'-F C and U; 2'-OMe purines of sectors 1,3,5 plus G31; 5' hexyl amine; 3'-3' cap
B26: TN9.4M3 (ssRNA)
RNA: GGGAGGACGAUGCGGAACAAUGCACUCGUCGCCGUAAUGGAUGUUUUGCUCCCUG
modifications: 2'-F C and U; 2'-OMe G15,A16,A17,A19,A20,G22,A24; 3'-3' cap
B27: TN9.4M1 (ssRNA)
RNA: GGGAGGACGAUGCGGAACAAUGCACUCGUCGCCGUAAUGGAUGUUUUGCUCCCUG
modifications: 2'-F C and U; 2'-OMe G1,G2,G3,A4,G5,G55; 3'-3' cap
B28: TN9.4M135G9 (ssRNA)
RNA: GGGAGGACGAUGCGGAACAAUGCACUCGUCGCCGUAAUGGAUGUUUUGCUCCCUG
modifications: 2'-F C and U; 2'-OMe purines of sectors 1,3,5 plus G9; 5' hexyl amine; 3'-3' cap
B29: TN9.4M2 (ssRNA)
RNA: GGGAGGACGAUGCGGAACAAUGCACUCGUCGCCGUAAUGGAUGUUUUGCUCCCUG
modifications: 2'-F C and U; 2'-OMe G6,A7,G9,A10,G12,G14; 3'-3' cap
B30: TN9.4M1235 (ssRNA)
RNA: GGGAGGACGAUGCGGAACAAUGCACUCGUCGCCGUAAUGGAUGUUUUGCUCCCUG
modifications: 2'-F C and U; 2'-OMe purines of sectors 1,2,3,5 (G28,G31,G34 2'-OH); 5' hexyl amine; 3'-3' cap
B31: TN9.4M135G6 (ssRNA)
RNA: GGGAGGACGAUGCGGAACAAUGCACUCGUCGCCGUAAUGGAUGUUUUGCUCCCUG
modifications: 2'-F C and U; 2'-OMe purines of sectors 1,3,5 plus G6; 5' hexyl amine; 3'-3' cap
B32: TN9.4 (ssRNA)
RNA: GGGAGGACGAUGCGGAACAAUGCACUCGUCGCCGUAAUGGAUGUUUUGCUCCCUG
modifications: 2'-F C and U; 3'-3' cap

What follows are binders tested against T1, Tenascin-C (Homo sapiens, UniProt P24821 P24821:23-2201) (assay: filter; Family II). Conditions: tags: Chemicon (Temecula, CA).
T1 sequence (P24821 23-2201, one chain of several): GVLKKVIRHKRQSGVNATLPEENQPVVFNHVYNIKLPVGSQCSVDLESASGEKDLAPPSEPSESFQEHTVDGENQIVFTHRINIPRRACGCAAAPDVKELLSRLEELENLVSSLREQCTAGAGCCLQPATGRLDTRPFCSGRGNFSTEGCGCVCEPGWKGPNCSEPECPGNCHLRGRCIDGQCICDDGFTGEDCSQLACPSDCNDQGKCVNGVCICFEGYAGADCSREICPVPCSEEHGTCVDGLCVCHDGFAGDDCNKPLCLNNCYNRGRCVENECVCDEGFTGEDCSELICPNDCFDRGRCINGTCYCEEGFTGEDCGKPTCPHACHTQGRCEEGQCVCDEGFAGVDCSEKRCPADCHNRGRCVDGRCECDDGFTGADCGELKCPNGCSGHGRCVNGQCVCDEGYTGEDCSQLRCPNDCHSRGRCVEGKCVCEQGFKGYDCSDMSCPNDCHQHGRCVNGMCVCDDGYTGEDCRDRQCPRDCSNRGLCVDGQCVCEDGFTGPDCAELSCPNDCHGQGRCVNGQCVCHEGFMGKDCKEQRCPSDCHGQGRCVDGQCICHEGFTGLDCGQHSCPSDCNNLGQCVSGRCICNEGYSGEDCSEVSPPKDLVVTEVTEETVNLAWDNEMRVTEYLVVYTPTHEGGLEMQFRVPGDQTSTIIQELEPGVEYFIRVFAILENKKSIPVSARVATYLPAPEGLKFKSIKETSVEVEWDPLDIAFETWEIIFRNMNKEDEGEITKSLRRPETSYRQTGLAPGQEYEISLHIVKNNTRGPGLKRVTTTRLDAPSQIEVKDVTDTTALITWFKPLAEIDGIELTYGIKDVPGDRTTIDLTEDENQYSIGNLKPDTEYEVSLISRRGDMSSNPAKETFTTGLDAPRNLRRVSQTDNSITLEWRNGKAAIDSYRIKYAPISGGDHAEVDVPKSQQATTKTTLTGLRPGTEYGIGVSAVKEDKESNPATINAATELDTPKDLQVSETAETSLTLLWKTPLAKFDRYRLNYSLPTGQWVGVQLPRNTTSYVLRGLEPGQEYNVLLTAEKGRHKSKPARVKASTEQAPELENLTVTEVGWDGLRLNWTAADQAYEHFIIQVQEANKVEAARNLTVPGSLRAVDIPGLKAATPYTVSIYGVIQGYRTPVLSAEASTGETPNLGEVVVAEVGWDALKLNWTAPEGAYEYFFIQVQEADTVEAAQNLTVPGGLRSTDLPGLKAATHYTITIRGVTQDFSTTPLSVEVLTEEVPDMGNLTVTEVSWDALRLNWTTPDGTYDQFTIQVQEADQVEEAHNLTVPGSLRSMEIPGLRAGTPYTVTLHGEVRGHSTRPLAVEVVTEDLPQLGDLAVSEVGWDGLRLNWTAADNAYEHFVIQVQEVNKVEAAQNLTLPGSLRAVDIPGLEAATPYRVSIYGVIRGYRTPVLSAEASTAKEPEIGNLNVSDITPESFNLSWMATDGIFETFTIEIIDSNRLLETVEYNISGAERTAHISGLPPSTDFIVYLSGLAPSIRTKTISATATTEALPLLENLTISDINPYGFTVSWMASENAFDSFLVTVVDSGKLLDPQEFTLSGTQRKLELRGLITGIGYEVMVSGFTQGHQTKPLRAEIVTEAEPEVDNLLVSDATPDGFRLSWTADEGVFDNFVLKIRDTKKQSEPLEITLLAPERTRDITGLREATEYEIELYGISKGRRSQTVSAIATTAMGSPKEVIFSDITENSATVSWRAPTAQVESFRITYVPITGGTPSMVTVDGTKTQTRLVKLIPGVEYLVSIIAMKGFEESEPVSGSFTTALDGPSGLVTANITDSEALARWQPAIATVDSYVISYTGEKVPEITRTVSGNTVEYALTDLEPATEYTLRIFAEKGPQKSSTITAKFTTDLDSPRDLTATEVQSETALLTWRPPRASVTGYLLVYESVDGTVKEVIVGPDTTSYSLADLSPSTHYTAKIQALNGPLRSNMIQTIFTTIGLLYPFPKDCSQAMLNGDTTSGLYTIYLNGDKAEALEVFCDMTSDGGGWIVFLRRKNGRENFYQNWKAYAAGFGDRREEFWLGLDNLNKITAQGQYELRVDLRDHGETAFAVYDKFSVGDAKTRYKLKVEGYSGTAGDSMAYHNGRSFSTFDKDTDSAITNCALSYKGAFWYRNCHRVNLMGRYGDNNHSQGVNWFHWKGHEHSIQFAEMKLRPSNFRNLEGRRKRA
In the case of B1, the Kd is reported as 5 nM.
Binder B2 has a Kd of 20 nM.
Work on B3 yielded a Kd of 20 nM.
For B4, the Kd was 8 nM.
B5 showed a Kd of 2 nM.
In the case of B6, the Kd is reported as 10 nM.

Each binder was assayed against T1, Tenascin-C (assay: filter; orphan). Conditions: tags: Chemicon (Temecula, CA).
Description: (§1) which contains the T7 polymerase promoter (underlined). RNA was prepared with T7 RNA polymerase as described previously in Fitzwater, T., and Polisky, B. 1996. A SELEX primer. Methods Enzymol. 267, 275-301, incorporated herein by reference in its entirety. All transcription reactions were performed in the presence of pyrimidine nucleotides that were 2′-fluoro (2′-F) modified on the sugar moiety. This substitution confers enhanced resistance to ribonucleases that utilize the 2′-hydroxyl moiety for cleavage of the phosphodiester bond. Specifically, each transcription mixture contained 3.3 mM 2′-F UTP and 3.3 mM 2′-F CTP along with 1 mM GTP and ATP. The initial randomized RNA library thus produced comprised 3×10¹⁴ molecules. The affinities of individual ligands for tenascin-C were determined by standard methods using nitrocellulose filter partitioning (Tuerk C, Gold L. Science Aug. 3, 1990 3;249(4968):505-10).
With B7 the Kd was 110 nM.
In the case of B8, the Kd is reported as 145 nM.
Work on B9 yielded a Kd of 10 nM.

Each binder was assayed against T1, Tenascin-C (assay: filter; Family I; printed as 7N22). Conditions: tags: Chemicon (Temecula, CA).
In the case of B10, the Kd is reported as 40 nM.

The binders below were run against T1, Tenascin-C (assay: filter; Family I). Conditions: tags: Chemicon (Temecula, CA).
Description: as §1
In the case of B11, the Kd is reported as 30 nM.
B12 showed a Kd of 25 nM.
Binder B13 has a Kd of 15 nM.
For B14, the Kd was 10 nM.
Work on B15 yielded a Kd of 10 nM.
B16 gave a Kd of 20 nM.
With B17 the Kd was 40 nM.

The binders below were run against T1, Tenascin-C (assay: filter). Conditions: tags: Chemicon (Temecula, CA).
GGGAGGACGCACUCGUCGCCGUAAUGGAUGUUUUGCUCCCUG (ssRNA, 2'-F C and U [2'-F: 8,10,12-14,16,17,19,20,22,25,29,31-34,36-41]) [TN9 with CACU loop]: binds.
GGGAGGACGGAGACGUCGCCGUAAUGGAUGUUUUGCUCCCUG (ssRNA, 2'-F C and U [2'-F: 8,14,16,17,19,20,22,25,29,31-34,36-41]) [TN9 with GAGA loop]: binds.

Biological target: T1, Tenascin-C
Test: filter
Conditions: tags: Chemicon (Temecula, CA)
Remark: another data set of the same source
Description: (§2) Oligonucleotide synthesis procedures were standard for those skilled in the art (Green L S, Jellinek D, Bell C, Beebe L A, Feistner B D, Gill S C, Jucker F M, Janjic N. Chem Biol 1995 Oct.;2(10):683-95). 2′-fluoro pyrimidine phosphoramidite monomers were obtained from JBL Scientific (San Luis Obispo, Calif.); 2′-OMe purine, 2′-OH purine, hexyl amine, and (CH₂CH₂O)₆ monomers, along with the dT polystyrene solid support, were obtained from Glen Research (Sterling, Va.). Aptamer affinities were determined using nitrocellulose filter partitioning (Green et al., supra).
In the case of B18, the Kd is reported as 2.5 nM.
B19 was tested, and the Kd was 4 nM.
In the case of B20, the Kd is reported as 1.7 nM.
Binder B21 has a Kd of 10 nM.
Binder B22 has a Kd of 7 nM.
With B23 the Kd was 37 nM.
With B24 the Kd was 1.3 nM.
B25 showed a Kd of 55 nM.
Binder B26 has a Kd of 7 nM.
B27 was tested, and the Kd was 6 nM.
In the case of B28, the Kd is reported as 7.7 nM.
With B29 the Kd was 20 nM.
B30 gave a Kd of 16.5 nM.
For B31, the Kd was 2.2 nM.

What follows are binders tested against T1, Tenascin-C (assay: filter; unit printed as nN). Conditions: tags: Chemicon (Temecula, CA).
Description: as §2
B32 showed a Kd of 2 nM.
